Assay results as given in patent US20240400618A1 (GRIFOLS DIAGNOSTIC SOLUTIONS, published 2024).
Like-named read-outs stand apart in the source and are kept apart here.

Key:
pxENB17-RBD-His [1] = molecular target: T1, pxENB17-RBD-His (SARS-CoV-2, UniProt P0DTC2 319-541)
pxENB9-FLS-CT-His [2] = molecular target: T2, pxENB9-FLS-CT-His (SARS-CoV-2, UniProt P0DTC2 15-1213)
pxENB9-FLS-CT-His [3] = molecular target: T2, pxENB9-FLS-CT-His; remark: listed apart in the source
pxENB17-RBD-His [4] = molecular target: T1, pxENB17-RBD-His; remark: listed apart in the source
pxENB17-RBD-His [5] = molecular target: T1, pxENB17-RBD-His; assay: BLI (Octet), ACE2 construct loaded on SA tips by its tag, RBD as analyte

| Binder | Kd (pxENB17-RBD-His [1]) [nM] | Kd (pxENB9-FLS-CT-His [2]) [nM] | also measured |
| --- | --- | --- | --- |
| pxENBCP23_hACE2_3A-mIgG(23) (Fc fusion) QSTIEEQAKTFLDKFNHEAEDLFYQSSLASWNYNTNITEENVQNMNNAGDKWSAFLKEQSTLAQMYPLQEIQNLTVKLQLQALQQNGSSVLSEDKSKRLNTILNTMSTIYSTGKVCNPDAPAECLLLEPGLNEIMANSLDYNERLWAWESWRSEVGKALRPLYEEYVVLKNEMARANHYEDYGDYWRGDYEVNGVDGYDYSRGQLIEDVEHTFEEIKPLYEHLHAYVRAKLMNAYPSYISPIGCLPAHLLGDMWGRFWTNLYSLTVPFGQKPNIDVTDAMVDQAWDAQRIFKEAEKFFVSVGLPNMTQGFWENSMLTDPGNVQKAVCHPTAWDLGKGDFRILMCTKVTMDDFLTAHHEMGHIQYDMAYAAQPFLLRNGANEGFHEAVGEIMSLSAATPKHLKSIGLLSPDFQEDNETEINFLLKQALTIVGTLPFTYMLEKWRWMVFKGEIPKDQWMKKWWEMKREIVGVVEPVPHDETYCDPASLFHVSNDYSFIRYYTRTLYQFQFQEALCQAAKHEGPLHKCDISNSTEAGQKLFNMLRLGKSEPWTLALENVVGAKNMNVRPLLNYFEPLFTWLKDQNKNSFVGWSTDWSPYADVPEVSSVFIFPPKPKDVLTITLTPKVTCVVVDISKDDPEVQFSWFVDDVEVHTAQTQPREEQFNSTFRSVSELPIMHQDWLNGKEFKCRVNSAAFPAPIEKTISKTKGRPKAPQVYTIPPPKEQMAKDKVSLTCMITDFFPEDITVEWQWNGQPAENYKNTQPIMNTNGSYFVYSKLNVQKSNWEAGNTFTCSVLHEGLHNHHTEKSLSHSPGK | 24.5 | 38.7 | – |
| pxEBNCP22_hACE2_3A-mIgG(h23) (Fc fusion) QSTIEEQAKTFLDKFNHEAEDLFYQSSLASWNYNTNITEENVQNMNNAGDKWSAFLKEQSTLAQMYPLQEIQNLTVKLQLQALQQNGSSVLSEDKSKRLNTILNTMSTIYSTGKVCNPDAPAECLLLEPGLNEIMANSLDYNERLWAWESWRSEVGKALRPLYEEYVVLKNEMARANHYEDYGDYWRGDYEVNGVDGYDYSRGQLIEDVEHTFEEIKPLYEHLHAYVRAKLMNAYPSYISPIGCLPAHLLGDMWGRFWTNLYSLTVPFGQKPNIDVTDAMVDQAWDAQRIFKEAEKFFVSVGLPNMTQGFWENSMLTDPGNVQKAVCHPTAWDLGKGDFRILMCTKVTMDDFLTAHHEMGHIQYDMAYAAQPFLLRNGANEGFHEAVGEIMSLSAATPKHLKSIGLLSPDFQEDNETEINFLLKQALTIVGTLPFTYMLEKWRWMVFKGEIPKDQWMKKWWEMKREIVGVVEPVPHDETYCDPASLFHVSNDYSFIRYYTRTLYQFQFQEALCQAAKHEGPLHKCDISNSTEAGQKLFNMLRLGKSEPWTLALENVVGAKNMNVRPLLNYFEPLFTWLKDQNKNSFVGWSTDWSPYADVPRDCGCKPCICTVPEVSSVFIFPPKPKDVLTITLTPKVTCVVVDISKDDPEVQFSWFVDDVEVHTAQTQPREEQFNSTFRSVSELPIMHQDWLNGKEFKCRVNSAAFPAPIEKTISKTKGRPKAPQVYTIPPPKEQMAKDKVSLTCMITDFFPEDITVEWQWNGQPAENYKNTQPIMNTNGSYFVYSKLNVQKSNWEAGNTFTCSVLHEGLHNHHTEKSLSHSPGK | 0.953 | 0.001 | – |
| pxEBNCP15_hACE2-AAA-StrepTagII (receptor) QSTIEEQAKTFLDKFNHEAEDLFYQSSLASWNYNTNITEENVQNMNNAGDKWSAFLKEQSTLAQMYPLQEIQNLTVKLQLQALQQNGSSVLSEDKSKRLNTILNTMSTIYSTGKVCNPDAPAECLLLEPGLNEIMANSLDYNERLWAWESWRSEVGKALRPLYEEYVVLKNEMARANHYEDYGDYWRGDYEVNGVDGYDYSRGQLIEDVEHTFEEIKPLYEHLHAYVRAKLMNAYPSYISPIGCLPAHLLGDMWGRFWTNLYSLTVPFGQKPNIDVTDAMVDQAWDAQRIFKEAEKFFVSVGLPNMTQGFWENSMLTDPGNVQKAVCHPTAWDLGKGDFRILMCTKVTMDDFLTAHHEMGHIQYDMAYAAQPFLLRNGANEGFHEAVGEIMSLSAATPKHLKSIGLLSPDFQEDNETEINFLLKQALTIVGTLPFTYMLEKWRWMVFKGEIPKDQWMKKWWEMKREIVGVVEPVPHDETYCDPASLFHVSNDYSFIRYYTRTLYQFQFQEALCQAAKHEGPLHKCDISNSTEAGQKLFNMLRLGKSEPWTLALENVVGAKNMNVRPLLNYFEPLFTWLKDQNKNSFVGWSTDWSPYADGGSGWSHPQFEK | – | – | Kd (pxENB9-FLS-CT-His [3]): 4710 nM; Kd (pxENB17-RBD-His [4]): 110 nM; Response, shift in Wavelength (nm) (pxENB17-RBD-His [5]): 0.0062 nm |
| pxEBNCP18_hACE2-AAA_p53 (receptor) QSTIEEQAKTFLDKFNHEAEDLFYQSSLASWNYNTNITEENVQNMNNAGDKWSAFLKEQSTLAQMYPLQEIQNLTVKLQLQALQQNGSSVLSEDKSKRLNTILNTMSTIYSTGKVCNPDAPAECLLLEPGLNEIMANSLDYNERLWAWESWRSEVGKALRPLYEEYVVLKNEMARANHYEDYGDYWRGDYEVNGVDGYDYSRGQLIEDVEHTFEEIKPLYEHLHAYVRAKLMNAYPSYISPIGCLPAHLLGDMWGRFWTNLYSLTVPFGQKPNIDVTDAMVDQAWDAQRIFKEAEKFFVSVGLPNMTQGFWENSMLTDPGNVQKAVCHPTAWDLGKGDFRILMCTKVTMDDFLTAHHEMGHIQYDMAYAAQPFLLRNGANEGFHEAVGEIMSLSAATPKHLKSIGLLSPDFQEDNETEINFLLKQALTIVGTLPFTYMLEKWRWMVFKGEIPKDQWMKKWWEMKREIVGVVEPVPHDETYCDPASLFHVSNDYSFIRYYTRTLYQFQFQEALCQAAKHEGPLHKCDISNSTEAGQKLFNMLRLGKSEPWTLALENVVGAKNMNVRPLLNYFEPLFTWLKDQNKNSFVGWSTDWSPYADGGGSKPLDGEYFTLQIRGRERFEMFRELNEALELKDAQAGKEPG | 0.001 | 0.001 | – |
| pxEBNCP9_hIL2-hACE2(18-615) (receptor) QSTIEEQAKTFLDKFNHEAEDLFYQSSLASWNYNTNITEENVQNMNNAGDKWSAFLKEQSTLAQMYPLQEIQNLTVKLQLQALQQNGSSVLSEDKSKRLNTILNTMSTIYSTGKVCNPDAPAECLLLEPGLNEIMANSLDYNERLWAWESWRSEVGKALRPLYEEYVVLKNEMARANHYEDYGDYWRGDYEVNGVDGYDYSRGQLIEDVEHTFEEIKPLYEHLHAYVRAKLMNAYPSYISPIGCLPAHLLGDMWGRFWTNLYSLTVPFGQKPNIDVTDAMVDQAWDAQRIFKEAEKFFVSVGLPNMTQGFWENSMLTDPGNVQKAVCHPTAWDLGKGDFRILMCTKVTMDDFLTAHHEMGHIQYDMAYAAQPFLLRNGANEGFHEAVGEIMSLSAATPKHLKSIGLLSPDFQEDNETEINFLLKQALTIVGTLPFTYMLEKWRWMVFKGEIPKDQWMKKWWEMKREIVGVVEPVPHDETYCDPASLFHVSNDYSFIRYYTRTLYQFQFQEALCQAAKHEGPLHKCDISNSTEAGQKLFNMLRLGKSEPWTLALENVVGAKNMNVRPLLNYFEPLFTWLKDQNKNSFVGWSTDWSPYAD | 45.1 | – | – |
| pxEBNCP25_hACE2-AAA(1-615) (receptor) QSTIEEQAKTFLDKFNHEAEDLFYQSSLASWNYNTNITEENVQNMNNAGDKWSAFLKEQSTLAQMYPLQEIQNLTVKLQLQALQQNGSSVLSEDKSKRLNTILNTMSTIYSTGKVCNPDAPAECLLLEPGLNEIMANSLDYNERLWAWESWRSEVGKALRPLYEEYVVLKNEMARANHYEDYGDYWRGDYEVNGVDGYDYSRGQLIEDVEHTFEEIKPLYEHLHAYVRAKLMNAYPSYISPIGCLPAHLLGDMWGRFWTNLYSLTVPFGQKPNIDVTDAMVDQAWDAQRIFKEAEKFFVSVGLPNMTQGFWENSMLTDPGNVQKAVCHPTAWDLGKGDFRILMCTKVTMDDFLTAHHEMGHIQYDMAYAAQPFLLRNGANEGFHEAVGEIMSLSAATPKHLKSIGLLSPDFQEDNETEINFLLKQALTIVGTLPFTYMLEKWRWMVFKGEIPKDQWMKKWWEMKREIVGVVEPVPHDETYCDPASLFHVSNDYSFIRYYTRTLYQFQFQEALCQAAKHEGPLHKCDISNSTEAGQKLFNMLRLGKSEPWTLALENVVGAKNMNVRPLLNYFEPLFTWLKDQNKNSFVGWSTDWSPYAD | 73.3 | – | – |
| pxEBNCP10_tPa-hACE2(18-615)-AAA (receptor) QSTIEEQAKTFLDKFNHEAEDLFYQSSLASWNYNTNITEENVQNMNNAGDKWSAFLKEQSTLAQMYPLQEIQNLTVKLQLQALQQNGSSVLSEDKSKRLNTILNTMSTIYSTGKVCNPDAPAECLLLEPGLNEIMANSLDYNERLWAWESWRSEVGKALRPLYEEYVVLKNEMARANHYEDYGDYWRGDYEVNGVDGYDYSRGQLIEDVEHTFEEIKPLYEHLHAYVRAKLMNAYPSYISPIGCLPAHLLGDMWGRFWTNLYSLTVPFGQKPNIDVTDAMVDQAWDAQRIFKEAEKFFVSVGLPNMTQGFWENSMLTDPGNVQKAVCHPTAWDLGKGDFRILMCTKVTMDDFLTAHHEMGHIQYDMAYAAQPFLLRNGANEGFHEAVGEIMSLSAATPKHLKSIGLLSPDFQEDNETEINFLLKQALTIVGTLPFTYMLEKWRWMVFKGEIPKDQWMKKWWEMKREIVGVVEPVPHDETYCDPASLFHVSNDYSFIRYYTRTLYQFQFQEALCQAAKHEGPLHKCDISNSTEAGQKLFNMLRLGKSEPWTLALENVVGAKNMNVRPLLNYFEPLFTWLKDQNKNSFVGWSTDWSPYAD | 60.8 | – | – |
| pxEBNCP19_mIgGHC_hACE2-3A (receptor) QSTIEEQAKTFLDKFNHEAEDLFYQSSLASWNYNTNITEENVQNMNNAGDKWSAFLKEQSTLAQMYPLQEIQNLTVKLQLQALQQNGSSVLSEDKSKRLNTILNTMSTIYSTGKVCNPDAPAECLLLEPGLNEIMANSLDYNERLWAWESWRSEVGKALRPLYEEYVVLKNEMARANHYEDYGDYWRGDYEVNGVDGYDYSRGQLIEDVEHTFEEIKPLYEHLHAYVRAKLMNAYPSYISPIGCLPAHLLGDMWGRFWTNLYSLTVPFGQKPNIDVTDAMVDQAWDAQRIFKEAEKFFVSVGLPNMTQGFWENSMLTDPGNVQKAVCHPTAWDLGKGDFRILMCTKVTMDDFLTAHHEMGHIQYDMAYAAQPFLLRNGANEGFHEAVGEIMSLSAATPKHLKSIGLLSPDFQEDNETEINFLLKQALTIVGTLPFTYMLEKWRWMVFKGEIPKDQWMKKWWEMKREIVGVVEPVPHDETYCDPASLFHVSNDYSFIRYYTRTLYQFQFQEALCQAAKHEGPLHKCDISNSTEAGQKLFNMLRLGKSEPWTLALENVVGAKNMNVRPLLNYFEPLFTWLKDQNKNSFVGWSTDWSPYAD | 56.2 | – | – |
